One may read the Kd as the constant that tells how readily two partners part at equilibrium. A word on the koff: it is a measure of how fast the partners let go of each other. As a reminder, the kon is the rate constant with which the complex forms.

We go through 2 molecules from patent publication US20260242515A1 (DUALITY BIOLOGICS SHANGHAI, published 2026).

Assay [1] addresses T1, ADAM9 on human tumor cells (LS174T, HepG2, Calu-3, Colo205) (human, UniProt Q13443 29-819).
T1 sequence (looked up): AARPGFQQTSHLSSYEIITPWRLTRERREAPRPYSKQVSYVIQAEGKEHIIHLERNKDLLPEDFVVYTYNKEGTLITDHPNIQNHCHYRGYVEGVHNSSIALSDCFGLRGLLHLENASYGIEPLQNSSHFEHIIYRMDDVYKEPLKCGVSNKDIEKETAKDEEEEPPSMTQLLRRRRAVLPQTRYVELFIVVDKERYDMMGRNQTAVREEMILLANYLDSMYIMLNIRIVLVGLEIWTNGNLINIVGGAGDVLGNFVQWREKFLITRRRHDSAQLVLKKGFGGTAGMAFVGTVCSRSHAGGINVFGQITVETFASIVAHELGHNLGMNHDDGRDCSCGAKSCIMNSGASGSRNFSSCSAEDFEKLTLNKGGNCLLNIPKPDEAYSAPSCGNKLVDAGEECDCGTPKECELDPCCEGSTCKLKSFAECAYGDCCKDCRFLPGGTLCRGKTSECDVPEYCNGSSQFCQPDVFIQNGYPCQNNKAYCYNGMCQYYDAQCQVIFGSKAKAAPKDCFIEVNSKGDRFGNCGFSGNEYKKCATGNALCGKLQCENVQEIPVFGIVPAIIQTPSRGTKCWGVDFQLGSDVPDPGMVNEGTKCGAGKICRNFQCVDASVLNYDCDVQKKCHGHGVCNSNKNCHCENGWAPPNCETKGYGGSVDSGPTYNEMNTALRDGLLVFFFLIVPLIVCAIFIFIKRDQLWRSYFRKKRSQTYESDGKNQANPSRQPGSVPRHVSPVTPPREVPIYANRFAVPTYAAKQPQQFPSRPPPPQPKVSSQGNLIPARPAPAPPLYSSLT
Put plainly: cell-based or functional assay.

Assay [2] addresses T2, Monkey ADAM9 protein (ACRO, Cat. No. AD9-C52H7) (cynomolgus monkey, UniProt A0A2K5X4X8 29-697).
T2 construct: Bought protein; also called cynomolgus ADAM9 protein; monkey ADAM9 antigen
T2 sequence: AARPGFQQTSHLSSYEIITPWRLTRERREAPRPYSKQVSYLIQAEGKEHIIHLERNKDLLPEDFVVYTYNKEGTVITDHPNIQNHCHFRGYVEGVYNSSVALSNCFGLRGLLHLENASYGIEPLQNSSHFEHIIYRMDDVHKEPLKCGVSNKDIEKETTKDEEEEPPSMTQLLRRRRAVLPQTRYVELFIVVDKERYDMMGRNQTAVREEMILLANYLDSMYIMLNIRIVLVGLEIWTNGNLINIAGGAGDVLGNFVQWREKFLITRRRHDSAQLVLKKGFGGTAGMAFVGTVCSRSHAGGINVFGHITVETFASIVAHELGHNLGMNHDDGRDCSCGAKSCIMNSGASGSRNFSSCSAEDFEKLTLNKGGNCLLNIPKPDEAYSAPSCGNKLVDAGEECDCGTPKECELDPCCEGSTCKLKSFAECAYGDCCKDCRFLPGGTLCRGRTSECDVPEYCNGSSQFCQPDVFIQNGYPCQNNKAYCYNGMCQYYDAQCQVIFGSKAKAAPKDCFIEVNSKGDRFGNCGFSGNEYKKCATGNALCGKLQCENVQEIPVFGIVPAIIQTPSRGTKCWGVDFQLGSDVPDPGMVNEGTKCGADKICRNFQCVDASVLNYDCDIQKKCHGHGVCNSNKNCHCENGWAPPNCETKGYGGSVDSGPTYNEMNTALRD
Put plainly: SPR (Biacore 8K), antibody captured by anti-human Fc on CM5, monkey ADAM9 as analyte. How it is done: Chip preparation: The mouse anti-human IgG (Fc) antibody (Cat. No. 29234600, Cytiva) was diluted to 25 μg/mL in immobilization buffer (10 mM sodium acetate, pH 5.0), specifically by adding 950 μL of the immobilization buffer to 50 μL of the mouse anti-human IgG (Fc) antibody. The dilution was used for immobilization in eight channels. First, the surface of the CM5 chip was activated with 400 mM EDC and 100 mM NHS at a flow rate of 10 μL/min for 420 seconds. Then, 25 μg/mL of the mouse anti-human IgG (Fc) antibody was injected into the test channels at a flow rate of 10 μL/min for approximately 360 seconds, with the level of immobilization at approximately 7000 to 14000 RU. Finally, the chip was blocked with 1 M ethanolamine at a flow rate of 10 μL/min for 420 seconds. The reference channels underwent the same procedures as the test channels.
Ligand capture: Antibodies Ab10, Ab15, Ab16, and hMAB-A (2I.2) were diluted to 4 μg/mL in running buffer (containing 10 mM N-(2-hydroxyethyl)piperazine-N-2-ethanesulfonic acid (HEPES), 150 mM sodium chloride (NaCl), 3 mM ethylenediaminetetraacetic acid (EDTA), 0.005% Tween-20, pH adjusted to 7.4) and injected into the test channels for human IgG (Fc) capture at a flow rate of 10 μL/min at approximately 200 RU. No ligand capture was performed in the reference channels.
Analyte multi-cycle analysis: Human and cynomolgus ADAM9 proteins (human ADAM9 protein purchased from ACRO, Cat. No. AD9-H52H7; monkey ADAM9 protein purchased from ACRO, Cat. No. AD9-C52H7) were diluted 2-fold in running buffer (Table 10). The diluted human or cynomolgus ADAM9 protein was sequentially injected into the test channels and the reference channels at a flow rate of 30 μL/min, with corresponding association and dissociation times. Both the association and dissociation steps were performed in the running buffer. After each concentration analysis, the chip was regenerated with 3 M magnesium chloride at a flow rate of 20 μL/min for 30 seconds to wash away the ligand and any undissociated analyte. For the next concentration analysis, the test channels required re-capture of the same amount of ligand.

Residue numbers refer to the chain shown, from its start.

B1: Ab15 (antibody, human IgG1, kappa, V domains shown)
VH: QVQLQQPGAELKKPGASVKVSCKASGFTFPLYWMNWVRQRPGRGLEWIGRIIPIFGHTKYNEKFKDRATMTADESSSTAYMELSSLTSEDSAVYYCARGGYYYYPREGFLDYWGQGTSVTVSS
VL: DIVMTQSPDSLSVSPGERATINCRSSQSVDYSGDSYMNWYQQKPGQSPRLLIYAASDRESGVPDRFSGSGSGTDFTLKISNVEEEDAATYYCQQSREDPFTFGQGTRVEIKR
notes: Humanized anti-ADAM9 IgG1/kappa; also called Ab15-V (variable regions)
As for B1, in assay [1], the EC50 for internalization stood at 0.17 nM and the “Maximum internalization rate (%)” value is 81.8%. Also, in assay [2], the equilibrium dissociation constant (Kd) worked out at 9.47 nM, the koff came to 0.000461 s⁻¹ and the kon turned out to be 48700 M⁻¹ s⁻¹.

B2: Ab16 (antibody, human IgG1, kappa, V domains shown)
VH: B1 VH with A9T, L11V, K12V, V20L, N35H, D66N, R67K, M70L, S84R, E89D
VL: B1 VL with D9A, T20S, N22S, N81R, A88G, R107K, E109D
notes: Humanized anti-ADAM9 IgG1/kappa; also called Ab16-V (variable regions)
As to B2, in assay [1], the EC50 for internalization is 0.12 nM and the “Maximum internalization rate (%)” value was 83.3%. In assay [2], this molecule displayed a Kd of 8.61 nM, a koff of 0.000528 s⁻¹ and a kon of 61300 M⁻¹ s⁻¹.
